Data taken from patent US20260374888 (published 2026).

T1: mouse 4-1BB (mouse, UniProt P20334)
T1 chain: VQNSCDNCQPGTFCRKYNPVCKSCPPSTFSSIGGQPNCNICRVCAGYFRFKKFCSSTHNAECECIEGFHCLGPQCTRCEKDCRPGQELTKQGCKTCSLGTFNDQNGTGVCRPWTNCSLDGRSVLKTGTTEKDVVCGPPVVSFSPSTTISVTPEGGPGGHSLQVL

T2: mouse CD40 (mouse, UniProt P27512)
T2 chain: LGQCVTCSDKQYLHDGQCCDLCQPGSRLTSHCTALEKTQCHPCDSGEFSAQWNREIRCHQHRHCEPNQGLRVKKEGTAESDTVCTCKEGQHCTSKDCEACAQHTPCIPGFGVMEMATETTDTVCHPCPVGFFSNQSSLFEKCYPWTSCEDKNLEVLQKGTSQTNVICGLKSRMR


Columns and labels:
mouse 4-1BB = target: T1, mouse 4-1BB; assay: other, cells transiently overexpressing target
mouse CD40 = target: T2, mouse CD40; assay: other, cells transiently overexpressing target

| binding result (mouse 4-1BB) | binding result (mouse CD40) | Binder |
| --- | --- | --- |
| no binding |  | GEN1042 (CD137 arm) (antibody, V domains shown) VH: EVQLVESGGGLVQPGRSLRLSCTASGFSLNDYWMSWVRQAPGKGLEWVGYIDVGGSLYYAASVKGRFTISRDDSKSIAYLQMNSLKTEDTAVYYCARGGLTYGFDLWGQGTLVTVSS VL: DIVMTQSPSSLSASVGDRVTITCQASEDISSYLAWYQQKPGKAPKRLIYGASDLASGVPSRFSASGSGTDYTFTISSLQPEDIATYYCHYYATISGLGVAFGGGTKVEIK |
|  | no binding | GEN1042 (CD40 arm) (antibody, V domains shown) VH: EVQLVQSGAEVKKPGASVKVSCKTSGYTFTEYIMHWVRQAPGQGLEWMGGIIPNNGGTSYNQKFQGRVTMTVDKSTSTGYMELSSLRSEDTAVYYCTRREVYGRNYYALDYWGQGTLVTVSS VL: DIQMTQSPSSLSASVGDRVTITCSASQGINNYLNWYQQKPGKAVKLLIYYTSSLHSGVPSRFSGSGSGTDYTFTISSLQPEDIATYYCQQYSNLPYTFGGGTKVEIK |
